# Measurements from the nanobody polyreactivity screen of Harvey et al. (2022).
# Experiment: yeast display, Sf9 membrane polyspecificity reagent, FACS + sequencing; frameworks hold sequencing errors
# Outline: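 Galactose induction of a Saccharomyces cerevisiae BJ5465 synthetic nanobody display library ran 36–48 hours. The cells were then stained for 1 hour at 4 °C with 10% biotinylated, detergent-solubilized Sf9 membrane reagent, pulled down on streptavidin microbeads and FACS-sorted into low and high (top ~1%) gates on expression and reagent-binding fluorescence. Labels for polyreactivity follow the gate of origin.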
row,Sequence,polyreactivity (PSR sort gate)
1,QVQLVESGGGLVQAGGSLRLSCAASGSIFPGYAMGWDRQAPGKERQLVATITWSGGSTYYADSVKGRFTISRDNAKNTVYLQMNSLKPEDTAVYYCIADSNWYYQWNYYGLYDYWGQGTQVTVSS,low polyreactivity
2,QVQLVESGGGLVQAGGSLRLSCAASGFTFYHYAMGWYRQAPGKERELGAAISRSGGSTYYADSVKGRFTISRDNAKNTVYLQMNSLKPEDTAVYYCAKVLRAKNSFDYWGQGTQVTVSS,high polyreactivity
3,QVQLVESGGGLVQAGGSLRLSCAASGSTFGYYAMGWYRQAPGKERELVAAISYSGGSTYYADSVKGRFTISRDNAKNTVYLQMNSLKPEDTAVYYCAARLTRQMYYWGQGTQVTVSS,high polyreactivity
4,QFQLVESGGGLFQAGARLRLSSAASGNIFNWYALGLYRQAPGKEREFVACISTSGGSTYYADSVKGRFTISRDNAKNSVYLQMNSLKPEDTAVYYCNAKFFVYECLPGPSYWYDYWGQGTQVTVSS,high polyreactivity
5,QVQLVESGGGLVQAGGSLRLSCAASGSTFLYNTMGWYRQAPGKESELVATITSRGDRTYYADSVKGRFTISRDNAKNTVYLQMNSLKPEDTAVYYCNAYGGNYPQSYRYYYWGQGTQVTVSS,low polyreactivity
6,QVKLVESGGVLVQAGGSLRLSCADSGRTFYPYAMGWYRQGPGKDRELVAAISRSGGSTYADSVKGRFTISRDNAKYTVYLQMNSLKPEDTAVYYCATRRKTYLSFNYDYWGQGTQVTVSS,low polyreactivity
7,QVQLVESGGGLVQAGGSLRLSCAASGSIISVYVMGWYRQAPGTERELVASITSGASTNYADSVKGRFTISRDNETNTVYLQMNSLKPEDTAVYYCAARDWYDGFYYWGQGTQVTVSS,low polyreactivity
8,QVQLVESGGGLVQAGGSLRLSCAASGFTYYHNVMGWYRQAPGKERELVAAISSGGDTTYYADSVKGRFTISRDNAKNTVSLQKNSLKPEDTAVYYCNADRQIGRYYHFDYWGQGTQVSVSS,high polyreactivity
9,QVQLVESGGGIVQAGGSLRLSCAASGSTFGSYAMGWYRQAPGKVRELVAAIYRAGSTYADSVKGRFTISRDNAKYTVYFQMNSLKPEDTAVYYCAKRDNALYYGYDYWRQGTQVTVSS,low polyreactivity
10,QVQHEESGGGLVQAGGSLRLSCAASGITINFYDMGRYRQARGKERELGAAITASGGGSTYYADSVKGRFTISRDNAKNTVYLQMNSLKPEYTAVYYCNADSTGSFYTFDYWGQGTQVTVSS,low polyreactivity
11,QVQLVESGGGLVQAGGRLRLSCAASGITFSYYAMGRYRQAPGKERELVAAISSGGRTYYADSVKGRFTISRDNAKNTVYLQMNSLKQEDTAVYYCAASFLVTSREYDYWGQGTQVTVSS,high polyreactivity
12,QVQLQESGGGLVKAGGSLRLSCAASGNISPRDAMGWYRQAPGEERDLVASNPYSAITYYADGVKGRYTISRDNAKNTVYLQMNSLKPEDTEVYYCAVYQFTYAVFPAYWGQGSQVTVSS,low polyreactivity
13,QVQLVESGGGLVPAGGSLRLSCAASGSIFGRNTMGWYRQAPGKERELVAAISSRGTSTYYADSVKGRFTISRDNAKNTVYLQMNSLKPEDTAVYYSAARVYPYNYWGQGTQVTVSS,high polyreactivity
14,QVQLVESGGGLVQAGGSLRLSCAASVRIFQRNVMGWYRQAPGKEWELVATINWSGASTYYADSVKGRFTISRDNAKNTVYLQMNSLTPEDTAVYYCAKDGHYPLVYLAFDYWGQGTQVTVSS,low polyreactivity
15,QVQLVESGGGLVQAGGSLRLSCAASGFTFRRYAMGWYRQAPWKESELVAAITRDGITNYAASVKGRFTLSRDNAKNTVYFQMNILKPEDTAVYYCARRTGRARLDYWGQGTQVSVSS,high polyreactivity
16,QVQVVESGGGLFQAGGSLRLSSAASGSIFARNALGWYRQAPGKERDLVAGITRSTGDTYYADSVKGRFTISRDNAKYTVSFQMNSLKQEDTAVYYCARDGRRTPYKYEYWGQGTQVTVSS,low polyreactivity
17,QVQLVESGGGLVQAGGSLRLSCAASGRTFNAYAMGWYRQAPGKERELVAAITWSGGSTYYAHSVKGRFTISRDNAKNTVYLQMNSLKPEDTAVYYCAARSFTNIRSVSSPYRYYYWGQGTQVTVSS,high polyreactivity
18,QVQLVESGGGLVQAGGSLRLSCAASGRTFAGNAMGWYRQAPGKERELVAGISSGGSTNNADSVKGRFTSTRDNAKNTVYLQMNSLNPEDTAVYYCAKRYFRKGYPLFQYAYGYWGQGTQVTLSS,high polyreactivity
19,QVQLVESGGGLVQAGGSLRLSCAASGSIFDVYAMGWYRQAPGKERELVAAITGGGSTYYADSVKGRFTISRDNAKNTVYLQMNSLKPEDTAVYYCNADRRRRSGGFAGWHFQRNDYWGQGTQVTVSS,low polyreactivity
20,QVQLVESGGGVVQAGGSLRLSCAASGITFNGNAMGWYRQAPGKERELVATISRSDGRTYYADSVKGRFTISRDNAKNTDYFQMNSLKPEDTAVYYCAAYTTRPYWGQGTQVTVSS,high polyreactivity
21,QVQLVESGGGLVQAGGSLRLSCAASGYILFAYAMGWYRQAPGKERALVATITTSGGITYYADSVKGRFTISRDNAKNTVYLQMNSLKPEDTAVYYCAAAEGGGLVTYDYWGQGTQVTVSS,low polyreactivity
22,QVQLVESGGGLVQAGGSLRLSCAASGSTFFDYAMGWYRQAPGKERELVAAISRSGDTNYADSVKGRFTISRDNAKNTVYLQMNSLKPEDTAVYYCAKDWAYRRHWVGFYYWGQGTQVTVSS,low polyreactivity

row,Sequence,polyreactivity (PSR sort gate)
1,QVQLVDSGGGLVQAGGSLRLSCAASGITIVYYAMGWNRQAPGKERELVAAITRGANTYYADSVKGRFTISRDNAKNTVYLQMNSLKPEDTAVYYCAADGWVGAWWYVLDVRYDYWGQGTQVTVSS,low polyreactivity
2,QVQLVESGGGLVQAGGSLRLSCAASGRIFSSYAMGWYRQAPGKERELVAAISSSGGNTYYADSVKGRFTISRDNAKNTVYLQMNSLKPEDTAVYYCNTRWVHRDWYDYWGLGTQVTVSS,high polyreactivity
3,QVQLVESGGGLVQAGGSLRLSCAASGSTLTFNAMGWYRQAPWKERELVAAISWSDTDTYYADSVKGRFTISRDNAKNTVYLQINSLKPEDTAVYYCAATLSAYEMDYWGQGTQVTVSS,low polyreactivity
4,QVQLVESGGGLVQAGGSLRLSCAASGSTFGTYAMGWNRQATWKERELVAAITYSTGNTYYADSVKGRFTISRDNAKNNVYLQMNSLKPEDTAVYYCALEFGYYYFWMDYWGQGTQVTVSS,high polyreactivity
5,QVQLVESGGGLVQAGVSLRLSCAASGRTFFPNAMGWYRQAPGKERELVAAITHSGGTTYYADSVKGRFTISRDNAKNTVYLQMNSLKPEDTAVYYCARGQPRYYNSAYGYWGLGTQVTVSS,high polyreactivity
6,QVQPVESAGGLVQAGGSLRLSCSASGFIFKYYAMGWYRQAPGKERELVAAISYSGTRTYYADSVKGRFTISRDNAKNTVYLQMNSLKPEDTAVYYCNARDWSFVGTYDYWGQGTQVTVSS,high polyreactivity
7,QVQLVESGGGLVQAGGSLRLSCAASGSIFDSYVMGWYRHAPGKERELVAAITYSGGSTYADSVKGRFTISRDNAQNTVDLQMNSLKPEDTAVYYCAAASSFYLYLLEDYWGQGTQVTVSS,low polyreactivity
8,QVQLVESGGGLVQAGGSLRLSCAASGGIFYFNAMGWYRQAPGKERELVASITWSGGNTYYADSVKGRFTISRDNAKNTVYLQMNSLKPEDTAVYYCAADTQEYRPTYDYWGQGTQVTVSS,low polyreactivity
9,QVQLVESGGGLVQAGGSLRLSCAASGRIFRPNAMGWYRQAPGKERELVAAISYSGATTYYADSVKGRFTISRDNAKNTVYLQMNSLKPEDTAVYYCAADTPDAPDYSGFYYWGQGTKVTVSS,low polyreactivity
10,QVQLQESGGVQEQEGGSLRQSCAESGTIFLYAYMGWYRQAPGKERELVAAIDVGTTTNYADSVKGRFTICRDNAKNTVYLQMNSLKPDDTAVYYCAANLGYLDDLGYWGQGTQVTVSS,low polyreactivity
11,QVQLVESGGGLVQAGGSLRLSCAASGSTFQYYAMGWYRQAPGKERELVAAISSGGSTYYADSVKGRFTISRDNAKNTVYLQMNSLKPEDTAVYYCAADFVKRQANRQFDYWGQGTQVTVSS,high polyreactivity
12,QVQLVGSGGGLVQAGGSLRLSCAASGRTFWTNAMGWYRQAPGKERELVAAIRNSGGRTYYADSVKGRFTISRDNAKNTVYLQMNSLKPEDTAVYYCNARSSIRPRQGGYEHWGQGTQVTVSS,low polyreactivity
13,QVQLVESGGGLVQAGGSLRLSCAASGRVYAMGWYRQAPGKERELVAAISRNGGSTYYADSVKGRFTISRDNAKNNVYLQMNSLKPEDTAVYYCNKYSGYKGTDGGDYWGQGTQVTVSS,low polyreactivity
14,QVQLVESGGGLVQAGGSLRLSCAASGSTFFIKAMGWYRQAPGKERELVAAITSTDSTTYADSVKGRFTISRDNAKNTVYLQMNSLKPEDTAVYYCAKETIGQDPVSGAWARHEYDYWGQGTQVTVSS,low polyreactivity
15,QVQLVESGGGLVQAGGSLRLSCAASGRTFWYYTMGWYRQAPGKERELVASITYRGGSTYYADSVKGRFTISRDNAKNTVYLQMNSLKPEDTAVYYCNARSGNRYGPRYDYWGQGTQVTVSS,high polyreactivity
16,QVQLVESGGGFVQAGCSLRLSCDASGSIFAPNVMGCYRQAPGKERELDAAINFIGGRTYYADSVKGRFTISRDNAKNTVYLQMNSLKTEDTSVYYCNVGSYYRSYSGDFEYWGQGTQVTVSS,high polyreactivity
17,QVQLVESGGGLVQAGGSLRLSCAASGRIFTCYAMGWYRQAPGKERELVAAISSAGRTYYADSVKGRFTISRDNAKNTVYLQMNSLKPEDSAVYYCAKVSKYRHFYTFDYWGQGTQVTVSS,high polyreactivity
18,QVQLVESGGGLVQAGRSLRLSCAASGSTLLWNAMGWYRQAPGKERELVAVISWSGGSTYYGDSVKGRFTISRDNAKNTVYLQMNSLKPEDTAVYYCAHDYDGYVWDTEYDYWGQGTQVTVSS,low polyreactivity
19,QVQLVESGGGLVQAGGSLRLSCAASGFIFLSYGMGWYRPAPGKERELVASITSDGGSTYYADSVKGRFTISRDNAKNTVYLQMNSLKPEDTAVYYCAADSVSPWYYGWYYRYRGYGYWGQGTQVTVSS,low polyreactivity
20,QVQLVESGGGLVQAGGSLRLSCAASGSIFPWYAMGWYRQAPGNERELVAAINQIGGGGTNYADSVKGRFTISRDNAKNTVYLQMNSLKPEDTAVYYCAADHVWIRAYRFTKGDDYWGQGTQVTVSS,low polyreactivity
21,HVQLVESGGGLVQAGGSLRLTCAAYGINFTDYAMGWYRQDPGKEMELVAAISSGGGSTYYADSVKGRFTISLDYAKNTVYLQMNSLKPEDTAVYYCAAEGYLISGAGDYMYDYYWGQGTQVTVSS,high polyreactivity
